Experimental data from publication doi:10.1101/2020.10.05.326918 (bioRxiv, 2020).
Blank lines part the entries; values can stand above or below the binder they belong to.

Key:
Assay in all cases: cryo-EM structure
[1] = target: T1, MED17 (Mus musculus (endogenous in CH12 cells), UniProt Q8VCD5 1-649)
T1 sequence (looked up): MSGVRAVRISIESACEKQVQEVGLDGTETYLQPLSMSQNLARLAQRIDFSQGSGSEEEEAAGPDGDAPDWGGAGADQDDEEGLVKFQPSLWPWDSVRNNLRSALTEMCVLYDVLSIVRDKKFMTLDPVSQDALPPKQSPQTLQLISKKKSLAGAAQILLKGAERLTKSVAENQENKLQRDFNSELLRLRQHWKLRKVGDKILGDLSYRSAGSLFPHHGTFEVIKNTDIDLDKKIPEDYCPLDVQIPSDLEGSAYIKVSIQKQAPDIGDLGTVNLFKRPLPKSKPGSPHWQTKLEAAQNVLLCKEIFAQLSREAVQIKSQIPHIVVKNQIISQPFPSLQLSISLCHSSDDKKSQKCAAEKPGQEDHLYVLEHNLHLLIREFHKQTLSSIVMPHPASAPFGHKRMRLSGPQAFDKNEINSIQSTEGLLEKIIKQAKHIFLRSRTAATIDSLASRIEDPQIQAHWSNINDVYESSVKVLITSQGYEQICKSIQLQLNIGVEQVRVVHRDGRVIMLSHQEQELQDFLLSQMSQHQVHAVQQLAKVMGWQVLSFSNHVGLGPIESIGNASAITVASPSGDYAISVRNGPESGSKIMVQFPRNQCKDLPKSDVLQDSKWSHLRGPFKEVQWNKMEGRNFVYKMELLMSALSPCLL

[2] = target: T2, MED27 (Mus musculus (endogenous in CH12 cells), UniProt Q9DB40 1-311)
T2 sequence (looked up): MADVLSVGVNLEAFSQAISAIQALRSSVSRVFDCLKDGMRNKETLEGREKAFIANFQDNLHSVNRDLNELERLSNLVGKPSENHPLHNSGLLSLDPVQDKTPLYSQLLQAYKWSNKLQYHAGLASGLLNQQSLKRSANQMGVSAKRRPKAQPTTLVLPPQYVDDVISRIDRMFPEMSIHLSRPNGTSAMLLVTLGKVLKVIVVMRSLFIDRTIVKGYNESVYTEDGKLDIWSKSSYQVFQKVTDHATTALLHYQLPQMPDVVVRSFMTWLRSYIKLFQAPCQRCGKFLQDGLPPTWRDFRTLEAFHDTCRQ

[3] = target: T3, MED20 (Mus musculus (endogenous in CH12 cells), UniProt Q9R0X0 1-212)
T3 sequence (looked up): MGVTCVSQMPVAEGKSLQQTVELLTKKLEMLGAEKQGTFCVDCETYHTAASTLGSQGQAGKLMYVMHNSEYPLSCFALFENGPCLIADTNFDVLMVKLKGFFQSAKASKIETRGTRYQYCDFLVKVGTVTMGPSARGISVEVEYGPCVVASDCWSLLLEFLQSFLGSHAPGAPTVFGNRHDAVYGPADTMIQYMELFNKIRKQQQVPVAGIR

[4] = target: T4, MED7 (Mus musculus (endogenous in CH12 cells), UniProt Q9CZB6 1-233)
T4 sequence (looked up): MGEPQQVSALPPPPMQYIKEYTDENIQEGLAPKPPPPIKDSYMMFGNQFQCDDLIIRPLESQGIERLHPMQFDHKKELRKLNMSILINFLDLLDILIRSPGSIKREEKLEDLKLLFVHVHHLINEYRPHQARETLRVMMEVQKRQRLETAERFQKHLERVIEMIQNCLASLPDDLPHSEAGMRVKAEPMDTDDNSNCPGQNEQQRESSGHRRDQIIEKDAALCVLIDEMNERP

[5] = target: T5, MED28 (Mus musculus (endogenous in CH12 cells), UniProt Q920D3 1-178)
T5 sequence (looked up): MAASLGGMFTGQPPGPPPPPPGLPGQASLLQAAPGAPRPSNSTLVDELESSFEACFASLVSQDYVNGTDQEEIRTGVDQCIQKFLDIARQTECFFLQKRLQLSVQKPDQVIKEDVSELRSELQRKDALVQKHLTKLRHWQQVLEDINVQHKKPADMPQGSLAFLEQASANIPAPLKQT

[6] = target: T6, MED30 (Mus musculus (endogenous in CH12 cells), UniProt Q9CQI9 1-178)
T6 sequence (looked up): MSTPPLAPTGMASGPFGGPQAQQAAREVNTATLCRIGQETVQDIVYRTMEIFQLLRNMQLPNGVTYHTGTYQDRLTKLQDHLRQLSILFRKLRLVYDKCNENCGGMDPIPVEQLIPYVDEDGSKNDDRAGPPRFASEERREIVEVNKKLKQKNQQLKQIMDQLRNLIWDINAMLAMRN

[7] = target: T7, MED22 (Mus musculus (endogenous in CH12 cells), UniProt Q62276 1-200)
T7 sequence (looked up): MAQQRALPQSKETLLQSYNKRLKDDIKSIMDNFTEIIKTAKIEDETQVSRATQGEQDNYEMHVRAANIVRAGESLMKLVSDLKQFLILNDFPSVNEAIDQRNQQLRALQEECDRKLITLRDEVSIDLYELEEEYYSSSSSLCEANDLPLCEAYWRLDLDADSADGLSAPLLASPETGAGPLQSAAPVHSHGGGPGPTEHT

[8] = target: MED1 (Mus musculus (endogenous in CH12 cells), UniProt Q925J9 1-1575)
[9] = target: T8, MED4 (Mus musculus (endogenous in CH12 cells), UniProt Q9CQA5 1-270)
T8 sequence (looked up): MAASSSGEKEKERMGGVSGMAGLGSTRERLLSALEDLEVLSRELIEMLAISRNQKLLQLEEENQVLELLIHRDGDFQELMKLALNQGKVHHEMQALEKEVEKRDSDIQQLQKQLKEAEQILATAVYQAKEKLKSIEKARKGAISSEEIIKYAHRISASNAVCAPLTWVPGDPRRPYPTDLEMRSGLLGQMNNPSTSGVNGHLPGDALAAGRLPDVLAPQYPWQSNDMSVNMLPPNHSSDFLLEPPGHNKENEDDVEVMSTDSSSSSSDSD

MED1, sequence (Q925J9 whole entry): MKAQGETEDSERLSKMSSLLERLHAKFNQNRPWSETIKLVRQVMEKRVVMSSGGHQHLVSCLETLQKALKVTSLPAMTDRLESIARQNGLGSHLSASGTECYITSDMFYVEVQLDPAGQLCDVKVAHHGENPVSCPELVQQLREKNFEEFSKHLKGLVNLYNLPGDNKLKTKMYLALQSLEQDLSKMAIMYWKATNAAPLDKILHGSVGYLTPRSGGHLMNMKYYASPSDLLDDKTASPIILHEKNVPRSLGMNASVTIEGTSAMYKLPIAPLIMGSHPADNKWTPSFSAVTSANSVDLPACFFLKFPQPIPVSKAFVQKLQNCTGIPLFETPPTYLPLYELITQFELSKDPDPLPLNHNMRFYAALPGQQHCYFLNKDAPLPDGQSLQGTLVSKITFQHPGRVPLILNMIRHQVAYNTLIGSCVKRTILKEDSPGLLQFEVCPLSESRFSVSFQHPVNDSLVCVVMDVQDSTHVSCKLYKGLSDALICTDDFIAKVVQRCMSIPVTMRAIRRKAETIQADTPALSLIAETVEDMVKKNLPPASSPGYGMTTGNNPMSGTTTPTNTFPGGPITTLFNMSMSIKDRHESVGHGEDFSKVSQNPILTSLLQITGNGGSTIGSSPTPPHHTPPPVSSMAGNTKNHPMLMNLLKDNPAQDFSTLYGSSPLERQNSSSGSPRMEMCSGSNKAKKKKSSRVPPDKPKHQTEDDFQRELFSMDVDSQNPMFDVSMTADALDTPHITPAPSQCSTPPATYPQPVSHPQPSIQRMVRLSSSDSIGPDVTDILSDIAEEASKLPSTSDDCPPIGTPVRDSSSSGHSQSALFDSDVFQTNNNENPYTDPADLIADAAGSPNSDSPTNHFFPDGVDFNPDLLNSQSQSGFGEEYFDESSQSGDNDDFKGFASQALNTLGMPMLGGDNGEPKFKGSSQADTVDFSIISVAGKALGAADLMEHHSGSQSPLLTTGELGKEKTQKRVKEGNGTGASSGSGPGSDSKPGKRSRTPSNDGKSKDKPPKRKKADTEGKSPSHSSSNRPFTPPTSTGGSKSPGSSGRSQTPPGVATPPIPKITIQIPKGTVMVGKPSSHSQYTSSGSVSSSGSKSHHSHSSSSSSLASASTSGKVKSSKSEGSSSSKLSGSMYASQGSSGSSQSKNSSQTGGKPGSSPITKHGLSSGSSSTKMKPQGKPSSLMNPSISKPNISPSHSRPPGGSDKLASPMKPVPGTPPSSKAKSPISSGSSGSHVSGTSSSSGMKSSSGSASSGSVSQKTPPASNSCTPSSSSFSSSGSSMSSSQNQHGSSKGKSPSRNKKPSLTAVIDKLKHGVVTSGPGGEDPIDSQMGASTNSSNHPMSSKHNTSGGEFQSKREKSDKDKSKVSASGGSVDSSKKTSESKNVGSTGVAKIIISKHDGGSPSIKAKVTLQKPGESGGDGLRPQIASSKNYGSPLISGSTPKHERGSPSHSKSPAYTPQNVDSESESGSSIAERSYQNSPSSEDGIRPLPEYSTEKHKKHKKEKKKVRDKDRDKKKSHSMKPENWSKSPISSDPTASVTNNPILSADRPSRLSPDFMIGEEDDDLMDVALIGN

binding result [1]: binds
binding result [2]: binds
binding result [3]: binds
B1: MED18 (natural protein, Mus musculus (endogenous in CH12 cells), UniProt Q9CZ82 1-208, looked up)
chain: MEAPPVTMMPVTGGTINMMEYLLQGSVLDHSLESLIHRLRGLCDNMEPETFLDHEMVFLLKGQQASPFVLRARRSMDRAGAPWHLRYLGQPEMGDKNRHALVRNCVDIATSENLTDFLMEMGFRMDHEFVAKGHLFRKGIMKVVVYKIFRILVPGNTDSTEALSLSYLVELSVVAPAGQDMVSDDMRNFAEQLKPLVHLEKIDPKRLM

binding result [4]: binds
B2: MED21 (natural protein, Mus musculus (endogenous in CH12 cells), UniProt Q9CQ39 1-144, looked up)
chain: MADRLTQLQDAVNSLADQFCNAIGVLQQCGPPASFSNIQTAINKDQPANPTEEYAQLFAALIARTAKDIDVLIDSLPSEESTAALQAASLYKLEEENHEAATCLEDVVYRGDMLLEKIQSALADIAQSQLKTRSVTHSHSLPDS

binding result [5]: binds
binding result [6]: binds
binding result [7]: binds
B3: MED11 (natural protein, Mus musculus (endogenous in CH12 cells), UniProt Q9D8C6 1-117, looked up)
chain: MATYSLANERLRALEDIEREIGAILQNAGTAILELSKEKTNERLLDRQAAAFTTSVQHVEAELSAQIRYLTQVATGQPHEGSSYSSRKDCQMALKRVDYARLKISDVARTCEQMLEN

binding result [8]: binds
binding result [9]: binds
B4: MED9 (natural protein, Mus musculus (endogenous in CH12 cells), UniProt Q8VCS6 1-142, looked up)
chain: MASSGVAGGRQAEDTLQPPPELLPESKPPPPPQPLPVAALPPPAAPRPQSPAGAKEENYSFLPLVHNVIKCMDKDSPDLHQDLNALKTKFQELRKLIGTMPGIHVSPEQQQQQLHSLREQVRTKNELLQKYKSLCMFEIPKD
